# Test results as given in patent US20030220482A1, “Novel peptide antagonist of CXCR4 derived from the N-terminus of the viral chemokine vMIP-II” (priority 2000, published 2003).
# Where two headings read alike, the source gives them in different places.
# T1: CXCR4 chemokine receptor (human), P61073
# T1 chain: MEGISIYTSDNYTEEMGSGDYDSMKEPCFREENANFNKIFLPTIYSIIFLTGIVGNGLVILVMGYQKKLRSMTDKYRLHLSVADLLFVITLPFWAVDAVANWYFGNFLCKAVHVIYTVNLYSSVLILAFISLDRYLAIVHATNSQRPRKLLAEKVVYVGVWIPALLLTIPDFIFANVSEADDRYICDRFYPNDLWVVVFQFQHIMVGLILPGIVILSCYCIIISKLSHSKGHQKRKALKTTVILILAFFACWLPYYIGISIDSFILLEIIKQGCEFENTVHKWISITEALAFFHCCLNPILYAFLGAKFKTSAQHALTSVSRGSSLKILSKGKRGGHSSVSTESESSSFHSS
# Experiments:
# [1] = target: T1, CXCR4 chemokine receptor (human), P61073; experiment: anti-CXCR4 mAb 12G5 competitive binding assay, IC50 against SDF-1
# [2] = target: T1, CXCR4 chemokine receptor (human), P61073; experiment: anti-CXCR4 mAb 12G5 competitive binding assay
# [3] = target: T1, CXCR4 chemokine receptor (human), P61073; experiment: ^125I-SDF-1α competitive binding assay, IC50 against SDF-1
# [4] = target: T1, CXCR4 chemokine receptor (human), P61073
# [5] = target: T1, CXCR4 chemokine receptor (human), P61073; experiment: cell-based or functional assay
binder,measurement,setting,value
"LGASWHRPDKCCLGYQKRPLP (modifications not checked) [V1 peptide (vMIP-II, 1-21)]",fold less potent than SDF-1,[1],33 fold
same,IC50,[2],640 nM
same,fold less potent than SDF-1,[3],70 fold
same,IC50,[4],190 nM
same,"chemotaxis assay, IC50",[5],1 µM
same,intracellular calcium influx in Sup T1 cells: block of the SDF-1 signal,[5],200 µM
